What was measured:
[1] = target: recombinant soluble His-tagged CD36; assay: SPR; His-tagged soluble CD36 immobilized, peptide 100 nM to 30 µM, Langmuir isotherm fit
[2] = target: CD36 on RAW 264.7 murine macrophage cells (murine) (UniProt Q08857); assay: cell-based or functional assay
[3] = target: IL-1 receptor (IL-1R) on cells (UniProt P14778); assay: cell-based or functional assay
Sequence of IL-1 receptor (IL-1R) on cells (P14778 18-569 limits assumed): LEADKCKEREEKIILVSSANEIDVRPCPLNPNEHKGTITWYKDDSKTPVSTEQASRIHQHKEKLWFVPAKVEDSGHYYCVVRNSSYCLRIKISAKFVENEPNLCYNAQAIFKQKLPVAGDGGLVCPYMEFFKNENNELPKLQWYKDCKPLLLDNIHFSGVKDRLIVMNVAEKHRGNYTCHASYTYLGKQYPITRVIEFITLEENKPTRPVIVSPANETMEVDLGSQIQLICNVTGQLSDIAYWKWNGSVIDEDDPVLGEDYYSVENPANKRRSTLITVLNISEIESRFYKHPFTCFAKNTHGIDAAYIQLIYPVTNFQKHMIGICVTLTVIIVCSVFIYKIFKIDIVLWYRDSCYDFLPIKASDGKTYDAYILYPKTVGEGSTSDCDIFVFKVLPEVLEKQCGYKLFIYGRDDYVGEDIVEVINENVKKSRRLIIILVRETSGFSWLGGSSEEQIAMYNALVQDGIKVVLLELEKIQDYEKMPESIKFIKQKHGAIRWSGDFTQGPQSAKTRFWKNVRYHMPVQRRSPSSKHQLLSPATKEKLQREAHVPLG

Sequence of recombinant soluble His-tagged CD36 (P16671 30-439): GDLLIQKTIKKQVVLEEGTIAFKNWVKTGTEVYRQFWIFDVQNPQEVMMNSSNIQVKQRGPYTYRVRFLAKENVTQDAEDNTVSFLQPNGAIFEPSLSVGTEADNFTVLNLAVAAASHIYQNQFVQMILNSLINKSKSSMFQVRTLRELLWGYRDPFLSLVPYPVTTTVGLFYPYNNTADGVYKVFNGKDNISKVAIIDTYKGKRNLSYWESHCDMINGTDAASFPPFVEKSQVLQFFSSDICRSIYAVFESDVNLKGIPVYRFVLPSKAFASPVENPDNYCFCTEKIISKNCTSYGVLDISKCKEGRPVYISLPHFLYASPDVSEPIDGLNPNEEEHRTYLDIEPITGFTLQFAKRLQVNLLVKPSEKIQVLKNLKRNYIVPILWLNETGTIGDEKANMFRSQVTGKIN
Sequence of CD36 on RAW 264.7 murine macrophage cells (murine) (Q08857 whole entry): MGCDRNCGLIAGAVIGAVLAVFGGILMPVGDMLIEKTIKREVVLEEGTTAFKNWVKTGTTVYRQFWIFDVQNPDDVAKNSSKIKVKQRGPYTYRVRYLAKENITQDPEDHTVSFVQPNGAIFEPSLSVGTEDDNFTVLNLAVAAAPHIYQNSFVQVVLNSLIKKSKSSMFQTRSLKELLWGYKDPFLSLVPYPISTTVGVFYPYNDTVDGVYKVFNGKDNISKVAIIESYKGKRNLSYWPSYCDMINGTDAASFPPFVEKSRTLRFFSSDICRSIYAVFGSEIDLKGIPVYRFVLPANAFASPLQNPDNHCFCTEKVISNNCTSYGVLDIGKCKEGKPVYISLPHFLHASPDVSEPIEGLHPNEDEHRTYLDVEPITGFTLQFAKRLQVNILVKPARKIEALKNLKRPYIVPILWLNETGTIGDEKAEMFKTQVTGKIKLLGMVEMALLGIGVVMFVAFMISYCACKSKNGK

Row | Substance | Kd [1] | ΔλSPR (nm) [1] | JNK-kinase cellular assay EC50 [2] | IL-1β-induced human thymocyte (TF-1) proliferation [3] | decrease in NF-KB activation in HEK Blue cells (SEAP reporter, OD620) [3]
1 | [azaTyr^4]GHRP-6 (His-D-Trp-Ala-AzaTyr-D-Phe-Lys-NH2) (peptide) | 5 µM | 1.8 nm | 214 nM |  | 
2 | [N-Amino-4-methylimidazolin-2-one^4]GHRP-6 (His-D-Trp-Ala-(N-amino-4-methyl-imidazolin-2-one)-D-Phe-Lys-NH2), RS-31a (peptide) | 4.9 µM | 1.1 nm | 55.4 nM |  | 
3 | [Nap^3]-101.10 (D-Arg-D-Tyr-Nap-D-Val-D-Glu-D-Leu-D-Ala-NH2) (peptide) |  |  |  | 41% | 
4 | [Nad^3]-101.10 (D-Arg-D-Tyr-Nad-D-Val-D-Glu-D-Leu-D-Ala-NH2) (peptide) |  |  |  | 53% | 
5 | Kineret (from UniProt P18510 26-177) (ligand) |  |  |  |  | 100%

Next, values leading:

Row | Kd [1] | ΔλSPR (nm) [1] | JNK-kinase cellular assay EC50 [2] | IL-1β-induced human thymocyte (TF-1) proliferation [3] | decrease in NF-KB activation in HEK Blue cells (SEAP reporter, OD620) [3] | Substance
6 | 11 µM | 1.6 nm | > 10000 nM |  |  | [N-Amino-4-benzylimidazolin-2-one^4]GHRP-6 (His-D-Trp-Ala-(N-amino-4-benzyl-imidazolin-2-one)-D-Phe-Lys-NH2), 31b (peptide)
7 |  |  |  | 77% | 65% | [Nai^3]-101.10 (D-Arg-D-Tyr-Nai-D-Val-D-Glu-D-Leu-D-Ala-NH2) (peptide)
8 |  |  |  | 41% |  | [(R)-Agl^3]-101.10 (peptide)
